Measurements reported in patent US20220372138A1 (IOMX THERAPEUTICS, published 2022).
Residue numbers refer to the chain shown, from its start. Blank lines part the entries; values can stand above or below the binder they belong to.

How the values were obtained:
[1] = target: T1, human IGSF11 (VSIG3) ECD, His-tagged (human, UniProt Q5DX21 23-241); test: IgG1 ELISA EC50 0.05-1 nM
T1 construct: in part bought (SinoBiological 13094-H08H); also called HIS-IGSF11; IGSF11-HIS; not shown: His tag
T1 sequence: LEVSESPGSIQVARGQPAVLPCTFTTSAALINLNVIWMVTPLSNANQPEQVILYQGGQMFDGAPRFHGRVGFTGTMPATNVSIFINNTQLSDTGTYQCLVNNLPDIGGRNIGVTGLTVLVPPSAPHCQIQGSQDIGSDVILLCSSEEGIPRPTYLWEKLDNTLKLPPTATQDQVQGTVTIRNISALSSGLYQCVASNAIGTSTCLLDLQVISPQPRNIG

[2] = target: T2, murine IGSF11 expressed on cells (mouse, UniProt P0C673 23-428); test: IgG FACS CT26-IGSF11
T2 construct: MC38-IGSF11, CT26-IGSF11, MC38-wt (naturally expresses murine IGSF11)
T2 sequence: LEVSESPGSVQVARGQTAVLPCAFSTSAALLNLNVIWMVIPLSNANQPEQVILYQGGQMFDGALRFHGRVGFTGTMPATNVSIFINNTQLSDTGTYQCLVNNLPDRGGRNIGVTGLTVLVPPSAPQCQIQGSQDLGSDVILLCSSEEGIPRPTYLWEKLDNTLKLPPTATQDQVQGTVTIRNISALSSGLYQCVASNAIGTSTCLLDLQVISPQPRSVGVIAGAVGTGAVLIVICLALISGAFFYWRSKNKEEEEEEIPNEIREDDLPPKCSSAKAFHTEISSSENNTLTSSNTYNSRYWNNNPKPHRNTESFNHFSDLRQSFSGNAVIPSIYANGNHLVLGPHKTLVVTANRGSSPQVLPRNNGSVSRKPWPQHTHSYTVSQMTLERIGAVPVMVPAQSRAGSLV
From the text: (§1) Unbound antibodies were removed by washing the cells three time with FACS buffer. Bound antibodies were detected with a mouse anti-human IgG antibody conjugated with AlexaFluor647.

[3] = target: T2, murine IGSF11 expressed on cells; test: IgG FACS MC38-IGSF11
From the text: as §1

[4] = target: T3, full-length ECD of human IGSF11 fused to murine Fc (human, UniProt Q5DX21 23-241); test: IgG ELISA
T3 construct: also called Fc-fusion IGSF11 ECD; not shown: murine Fc
T3 sequence: T1 sequence

[5] = target: T4, IgC2 domain of human IGSF11 fused to murine IgG2a Fc (human, UniProt Q5DX21 137-241); test: IgG ELISA
T4 construct: not shown: murine IgG2a Fc-region
T4 sequence: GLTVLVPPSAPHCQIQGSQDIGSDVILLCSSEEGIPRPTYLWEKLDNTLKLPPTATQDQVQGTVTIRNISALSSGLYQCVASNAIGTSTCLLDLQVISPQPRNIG

[6] = target: T5, human IGSF11 (VSIG3) expressed on cells (human, UniProt Q5DX21 23-431); test: IgG1 FACS HEK-OE
T5 sequence: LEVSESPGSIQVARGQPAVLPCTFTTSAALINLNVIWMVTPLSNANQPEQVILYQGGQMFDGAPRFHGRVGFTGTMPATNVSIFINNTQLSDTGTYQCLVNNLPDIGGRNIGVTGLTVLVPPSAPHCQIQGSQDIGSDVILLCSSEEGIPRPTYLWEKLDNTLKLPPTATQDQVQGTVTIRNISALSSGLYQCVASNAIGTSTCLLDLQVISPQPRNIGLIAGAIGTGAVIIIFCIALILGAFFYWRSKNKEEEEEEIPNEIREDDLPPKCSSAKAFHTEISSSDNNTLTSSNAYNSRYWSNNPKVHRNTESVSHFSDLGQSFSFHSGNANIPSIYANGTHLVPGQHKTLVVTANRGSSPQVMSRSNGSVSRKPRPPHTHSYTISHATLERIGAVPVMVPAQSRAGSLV

[7] = target: T1, human IGSF11 (VSIG3) ECD, His-tagged; test: IgG1 ELISA EC50 0.02-0.05 nM
[8] = target: T6, extracellular domain (ECD) of human IGSF11 (VSIG3), recombinant (human, UniProt Q5DX21 23-241); test: SPR
T6 construct: biotinylated where captured on streptavidin; tags of the reagent not always stated; also called IGSF11 (ECD domain); ECD-IGSF11
T6 sequence: T1 sequence

[9] = target: T5, human IGSF11 (VSIG3) expressed on cells; test: IgG1 FACS DMS 273
[10] = target: T1, human IGSF11 (VSIG3) ECD, His-tagged; test: IgG1 ELISA EC50 <0.02 nM
[11] = target: T1, human IGSF11 (VSIG3) ECD, His-tagged; test: ELISA: IGSF11-HIS coated, IgG1 dilution series, anti-human antibody-HRP, TMB
[12] = target: T1, human IGSF11 (VSIG3) ECD, His-tagged; test: blocking ELISA: VSIR-Fc immobilised, IgG dilution series pre-incubated with 200 nM IGSF11 ECD-His, bound IGSF11 detected with anti-His-HRP
[13] = target: T5, human IGSF11 (VSIG3) expressed on cells; test: FACS, DMS 273 cells with scrambled control siRNA (SC)
[14] = target: T5, human IGSF11 (VSIG3) expressed on cells; test: FACS, M579-A2-luc cells with scrambled control siRNA (SC)
[15] = target: T5, human IGSF11 (VSIG3) expressed on cells; test: FACS, DMS 273 cells with IGSF11 siRNA (KD, knock-down control)
[16] = target: T5, human IGSF11 (VSIG3) expressed on cells; test: FACS, M579-A2-luc cells with IGSF11 siRNA (KD, knock-down control)

B1: A-029 (IgG1 format) (antibody, V domains shown)
VH: QVQLVQSGAEVKKPGSSVKVSCKASGGTFSSYAISWVRQAPGQGLEWMGGIIPIFGTANYAQKFQGRVTITADESTGTAYMELSSLRSEDTAVYYCARSYYYYYGMDVWGQGTTVTVSS
VL: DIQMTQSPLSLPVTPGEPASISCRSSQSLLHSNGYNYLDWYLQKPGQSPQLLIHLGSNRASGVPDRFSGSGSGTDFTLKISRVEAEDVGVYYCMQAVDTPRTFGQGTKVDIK
notes: human IgG1 format
EC50 [1]: 0.05 to 1 nM

B3: A-025 (IgG1 format) (antibody, V domains shown)
VH: QVQLVQSGAEVKKPGSSVKVSCKASGGTFSSYAISWVRQAPGQGLEWMGGIIPIFGTANYAQKFQGRVTITADESTSTAYMELTSLRSEDTAVYYCARGGWLRQNWFDPWGQGTLVTVSS
VL: SSELTQDPAVSVALGQTVRITCQGDSLRSYYASWYQQKPGQAPVLVIYGKNNRPSGIPDRFSGSSSGNTASLTITGAQAEDEADYYCNSRDSSGNHPRVFGGGTKLTVL
notes: human IgG1 format
EC50 [1]: 0.05 to 1 nM

B6: A-023 (IgG1 format) (antibody, V domains shown)
VH: QVQLVQSGAEVKKPGSSVKVSCKASGGTFSSYAISWVRQAPGQGLEWMGGIIPIFGTANYAQKFQGRVTITADESTSTAYMELSSLRSEDTAVYYCARPKYSSGWFYYYGMDVWGQGTTVTVSS
VL: QSVLTQPPSVSAAPGQKVTISCSGSSSNIGNNYVSWYQQLPGTAPKLLIYDNNKRPSGIPDRFSGSKSGTSATLGITGLQTGDEADYYCGTWDSSLSVVFGGGTKLTVL
notes: human IgG1 format
EC50 [1]: 0.05 to 1 nM

B7: A-022 (IgG1 format) (antibody, V domains shown)
VH: EVQLLESGPGLVKPSQTLSLTCTVSGGSISSGGYYWSWIRQHPGKGLEWIGYIYYSGSTYYNPSLKSRVTISVDTSKNQFSLKLSSVTAADTAVYYCARASRSTDYYFDYWGQGTLVTVSS
VL: QPGLTQPPSMSYGLGQTATLTCTGNRNNIGDQGAAWLQQHQGHPPKLLSYRNNNGPSGISERLSASRSGNTASLTISGLQPEDEADYYCSAWDSSLRAWVFGGGTKLTVL
notes: human IgG1 format
EC50 [4]: < 1 nM
EC50 [5]: < 1 nM
EC50 [6]: 10 to 50 nM
EC50 [9]: 10 to 50 nM
EC50 [10]: < 0.02 nM

B12: A-003 (IgG1 format) (antibody, V domains shown)
VH: VQLVQSGAEVKKPGSSVKVSCKASGGTFSSYAISWVRQAPGQGLEWMGGIIPIFGTANYAQKFQGRVTITADESTSTAYMELSSLRSEDTAVYYCASPRIQLWAAGGFDYWGQGTLVTVSS
VL: QSALTQPASVSGSPGQSITISCTGTSSDVGGYNLVSWYQQHPGKAPKLMIYDVSNRPSGVSNRFSGSKSGNTASLTISGLQAEDEADYYCSSFTTSTTLVFGGGTKLTVL
notes: human IgG1 format
EC50 [1]: 0.05 to 1 nM

B13: A-027 (IgG1 format) (antibody, V domains shown)
VH: QVQLVQSGAEVKKPGSSVKVSCKASGGTFSSYAISWVRQAPGQGLEWMGGIIPIFGTANYAQKFQGRVTITADKSTSTAYMELSSLRSEDTAVYYCARARGSTWGYFDYWGQGTLVTVSS
VL: EIVLTQSPASLSLSPGERVTLSCRASQSVSNYLAWYQQKPGQAPRLLIYDASNRATGIPARFSGSGSGTDFTLTISSLEPEDFAVYYCQQRDNWPLTFGGGTKVEIK
notes: human IgG1 format
EC50 [4]: 1 to 20 nM
EC50 [5]: 1 to 20 nM
EC50 [6]: > 50 nM
% binding (FACS heat-map) [13]: 14.3%
% binding (FACS heat-map) [14]: 3.32%
% binding (FACS heat-map) [15]: 2.63%
% binding (FACS heat-map) [16]: 2.5%

B14: A-009 (IgG1 format) (antibody, V domains shown)
VH: B13 VH with K74E, A99G, S102F, T103G, W104E, G105L
VL: ETTLTQSPATLSVSPGERATLSCRASQGVRSNIAWYQQKPGQAPRLLIYDSSTRATGIPARFSGSGSGTEFTLTISSLQSEDFAVYSCQQYKNWPRTFGQGTKVEIK
notes: human IgG1 format
EC50 [1]: 0.05 to 1 nM

More lines, now with the values ahead:

EC50 [2]: 20 to 50 nM
EC50 [3]: 50 to 100 nM
B2: C-016 (IgG1 format) (antibody, V domains shown)
VH: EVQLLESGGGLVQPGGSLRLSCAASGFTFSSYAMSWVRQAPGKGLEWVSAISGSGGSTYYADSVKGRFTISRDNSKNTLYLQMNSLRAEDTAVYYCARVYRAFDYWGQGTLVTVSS
VL: ASVLTQPPSVSAAPGQKVTISCSGSSSNIGNNYVSWYQQLPGTAPKLLIYDNNKRPSGIPDRFSGSKSGTSATLGITGLQAEDEADYYCHLYTEAESHWVFGGGTKLTVL

EC50 [4]: 1 to 20 nM
EC50 [5]: 20 to 100 nM
EC50 [6]: > 50 nM
EC50 [7]: 0.02 to 0.05 nM
B4: A-035 (IgG1 format) (antibody, V domains shown)
VH: QVQLVQSGAEVKKPGASVKVSCKASGYTFTGYYMHWVRQAPGQGLEWMGWINPNSGNTGYAQKFQGRVTMTRNTSISTAYMELSSLRSEDTAVYYCARGRLERGYWYFDLWGRGTLVTVSS
VL: NFMLTQPHSVSESPGRTVTISCTRSSGSITSNYVQWYQQRPGSAPTILIYEDKERPSEVPDRFSGSIDISSNSASLTISGLKTEDEADYYCQSYGGTSQGVLFGGGTKVTVL
notes: human IgG1 format

Kd [8]: 250 to 500 nM
EC50 [1]: 0.05 to 1 nM
B5: A-034 (IgG1 format) (antibody, V domains shown)
VH: QMQLVQSGGGLVKPGGSLRLSCAASGFTFSSYTMNWVRQAPGKGLEWVSSISSIGTYIYYADSVKGRFTISRDNAKNSLYLQMNSLRAEDTAVYYCARVLLSGSYYGYFDSWGQGTLVTVSS
VL: QSVLTQPPSVSGAPGQRVTISCTGSSSNIGAGYDVHWYQQLPGTAPKLFIYGNSNRPSGVPDRFSGSKSGTSASLAITGLQAEDEADYYCQSYDSSLSGYVFGTGTKVTVL
notes: human IgG1 format

EC50 (read off the curve) [11]: ~0.02 nM
IC50 (read off the curve) [12]: ~5 nM
B8: B-004 (chain-swapped IgG1) (antibody, V domains shown)
VH: EVQLLESGGGLIQPGGSLRLSCAVSGFTVSSNYMSWVRQAPGKGLEWVSVIYSGGSTYYADSVKGRFTISRDNSKNTLYLQMNSLRAEDTAVYYCARGNPYYYGDLQVNFDYWGQGTLVTVSS
VL: QAVVTQEPSLTVSPGGTVTLTCASSTGAVTSGYYPNWFQQKPGQAPRPLIYSTSNKHSWTPARFSGSLLGGKAALTLSGVQPDDEAEYYCLLYYGGDWVFGGGTKLTVL
notes: human IgG1 format; also called B4

IC50 (read off the curve) [12]: ~4 nM
B9: B-008 (chain-swapped IgG1) (antibody, V domains shown)
VH: B8 VH with L5V, V24A
VL: B8 VL with L20P, A23G, Y33N, Y34L, P48A, F64I, D83E, D97A
notes: human IgG1 format; also called B8

EC50 (read off the curve) [11]: ~0.01 nM
IC50 (read off the curve) [12]: ~3 nM
B10: B-007 (chain-swapped IgG1) (antibody, V domains shown)
VH: B8 VH with L5V, V24A
VL: B8 VL with G32A, P48A, D83E, E87D, D97A
notes: human IgG1 format; also called B7

EC50 (read off the curve) [11]: ~0.02 nM
IC50 (read off the curve) [12]: ~5 nM
B11: B-006 (chain-swapped IgG1) (antibody, V domains shown)
VH: B8 VH with L5V, V24A
VL: B8 VL with G16E, K41R, P48A, H57D, D83E, D97A
notes: human IgG1 format; also called B6
